T1: human IL-1α, biotinylated (human, UniProt P01583 113-271, biotin (EZ-Link NHS-Peg4-Biotin, 10-fold molar excess; sites not stated))
T1 construct: interleukin-1 alpha (IL1A), human; crystallised); If it was the ProSpec protein, it may carry a His tag (surmised from the Talon beads); also called IL-1a; IL1F1; source: purified IL-1α protein, biotinylated with EZ-Link NHS-Peg4-Biotin
T1 sequence (looked up): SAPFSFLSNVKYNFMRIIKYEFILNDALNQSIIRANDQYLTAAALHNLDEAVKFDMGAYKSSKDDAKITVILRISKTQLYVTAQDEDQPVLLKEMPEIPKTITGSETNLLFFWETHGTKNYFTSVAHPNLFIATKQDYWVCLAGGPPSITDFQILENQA


Target: T1, human IL-1α, biotinylated
Test: radioligand binding; competition: 32P-labelled aptamer SL1067 (~30 pM) and unlabelled receptor (10^-6 to 10^-11 M) with biotinylated IL-1α (2 nM) in SB18T buffer (40 mM HEPES pH 7.5, 102 mM NaCl, 5 mM KCl, 5 mM MgCl2, 0.01% Tween-20), 37 °C, 60 min; complexes captured on MyOne streptavidin resin and Durapore filter plates; one-site competition model
Conditions: both partners purified

Ki [nM] | Binder
290 | recombinant IL-1RII, extracellular domain (receptor, UniProt P27930 14-343, looked up, interleukin-1 receptor type 2, extracellular domain; also called IL-1RI1 (as printed in the methods); source: bought: R&D Systems) FTLQPAAHTGAARSCRFRGRHYKREFRLEGEPVALRCPQVPYWLWASVSPRINLTWHKNDSARTVPGEEETRMWAQDGALWLLPALQEDSGTYVCTTRNASYCDKMSIELRVFENTDAFLPFISYPQILTLSTSGVLVCPDLSEFTRDKTDVKIQWYKDSLLLDKDNEKFLSVRGTTHLLVHDVALEDAGYYRCVLTFAHEGQQYNITRSIELRIKKKKEETIPVIISPLKTISASLGSRLTIPCKVFLGTGTPLTTMLWWTANDTHIESAYPGGRVTEGPRQEYSENNENYIEVPLIFDPVTREDLHMDFKCVVHNTLSFQTLRTTVKE
21 | recombinant IL-1RI, extracellular domain (receptor, UniProt P14778 18-336, looked up, interleukin-1 receptor type 1, extracellular domain; also called IL-1R1; IL-1 receptor; source: bought: R&D Systems) LEADKCKEREEKIILVSSANEIDVRPCPLNPNEHKGTITWYKDDSKTPVSTEQASRIHQHKEKLWFVPAKVEDSGHYYCVVRNSSYCLRIKISAKFVENEPNLCYNAQAIFKQKLPVAGDGGLVCPYMEFFKNENNELPKLQWYKDCKPLLLDNIHFSGVKDRLIVMNVAEKHRGNYTCHASYTYLGKQYPITRVIEFITLEENKPTRPVIVSPANETMEVDLGSQIQLICNVTGQLSDIAYWKWNGSVIDEDDPVLGEDYYSVENPANKRRSTLITVLNISEIESRFYKHPFTCFAKNTHGIDAAYIQLIYPVTNFQK
